Source: paper PMC12583452, “MCM5 UFMylation regulates replication origin firing and fork progression” (The EMBO Journal, 2025)

T1: FLAG-MCM5 (K583R), expressed in HeLa cells (human, UniProt P33992 1-734, K583R)
T1 construct: human MCM5, full-length cDNA in a pcDNA3.0 3XFLAG vector, point mutation K583R (UFMylation-resistant); also called KR; Lys583Arg; source: HeLa, transfected; in fixed cells (PLA) and in the chromatin fraction (IP)
T1 sequence (looked up): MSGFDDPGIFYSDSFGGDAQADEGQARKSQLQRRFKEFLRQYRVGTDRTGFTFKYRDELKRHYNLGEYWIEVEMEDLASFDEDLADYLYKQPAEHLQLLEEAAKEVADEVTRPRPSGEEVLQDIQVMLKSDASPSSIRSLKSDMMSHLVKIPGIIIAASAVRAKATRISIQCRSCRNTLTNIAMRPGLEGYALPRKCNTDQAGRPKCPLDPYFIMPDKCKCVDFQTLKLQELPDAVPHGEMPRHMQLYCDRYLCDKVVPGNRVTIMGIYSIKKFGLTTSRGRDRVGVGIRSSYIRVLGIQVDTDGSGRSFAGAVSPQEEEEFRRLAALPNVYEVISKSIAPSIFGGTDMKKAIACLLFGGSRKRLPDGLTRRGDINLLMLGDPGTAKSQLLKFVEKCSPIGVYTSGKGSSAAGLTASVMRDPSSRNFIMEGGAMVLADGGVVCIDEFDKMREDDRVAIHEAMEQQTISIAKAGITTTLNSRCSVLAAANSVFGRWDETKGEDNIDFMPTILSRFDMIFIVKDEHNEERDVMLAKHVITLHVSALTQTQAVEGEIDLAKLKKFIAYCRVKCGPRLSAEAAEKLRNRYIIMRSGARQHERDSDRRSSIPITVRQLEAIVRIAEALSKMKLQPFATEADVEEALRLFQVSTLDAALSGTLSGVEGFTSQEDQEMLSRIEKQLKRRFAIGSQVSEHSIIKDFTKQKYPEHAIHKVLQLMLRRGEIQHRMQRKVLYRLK

T2: His-UFL1 (UniProt O94874 1-794)
T2 construct: UFL1; construct pet28a-UFL1; also called pet28a-UFL1; source: E. coli BL21, purified (Ni-NTA agarose)
T2 sequence (looked up): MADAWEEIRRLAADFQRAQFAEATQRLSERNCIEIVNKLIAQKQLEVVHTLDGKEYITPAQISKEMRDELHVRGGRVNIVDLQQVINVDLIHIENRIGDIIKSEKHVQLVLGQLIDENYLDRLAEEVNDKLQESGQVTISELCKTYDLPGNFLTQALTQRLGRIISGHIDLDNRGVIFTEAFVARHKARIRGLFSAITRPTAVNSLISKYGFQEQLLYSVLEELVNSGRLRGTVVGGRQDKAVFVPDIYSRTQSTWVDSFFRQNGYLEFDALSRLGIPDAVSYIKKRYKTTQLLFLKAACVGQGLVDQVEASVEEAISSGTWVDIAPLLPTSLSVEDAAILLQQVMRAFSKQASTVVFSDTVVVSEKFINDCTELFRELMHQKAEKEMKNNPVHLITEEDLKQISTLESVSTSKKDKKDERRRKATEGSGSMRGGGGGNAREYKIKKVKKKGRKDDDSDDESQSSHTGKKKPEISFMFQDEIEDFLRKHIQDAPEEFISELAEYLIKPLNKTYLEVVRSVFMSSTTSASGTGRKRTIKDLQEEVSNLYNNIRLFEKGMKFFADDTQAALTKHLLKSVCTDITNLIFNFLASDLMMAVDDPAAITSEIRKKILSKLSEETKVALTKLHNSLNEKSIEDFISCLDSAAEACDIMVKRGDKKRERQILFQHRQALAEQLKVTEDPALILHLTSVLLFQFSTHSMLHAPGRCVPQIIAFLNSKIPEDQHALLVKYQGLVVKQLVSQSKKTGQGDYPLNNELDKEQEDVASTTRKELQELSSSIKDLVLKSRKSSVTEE

B1: CDC45 (endogenous, HeLa) (natural protein, human (endogenous in HeLa), UniProt O75419 1-566, looked up)
chain: MFVSDFRKEFYEVVQSQRVLLFVASDVDALCACKILQALFQCDHVQYTLVPVSGWQELETAFLEHKEQFHYFILINCGANVDLLDILQPDEDTIFFVCDTHRPVNVVNVYNDTQIKLLIKQDDDLEVPAYEDIFRDEEEDEEHSGNDSDGSEPSEKRTRLEEEIVEQTMRRRQRREWEARRRDILFDYEQYEYHGTSSAMVMFELAWMLSKDLNDMLWWAIVGLTDQWVQDKITQMKYVTDVGVLQRHVSRHNHRNEDEENTLSVDCTRISFEYDLRLVLYQHWSLHDSLCNTSYTAARFKLWSVHGQKRLQEFLADMGLPLKQVKQKFQAMDISLKENLREMIEESANKFGMKDMRVQTFSIHFGFKHKFLASDVVFATMSLMESPEKDGSGTDHFIQALDSLSRSNLDKLYHGLELAKKQLRATQQTIASCLCTNLVISQGPFLYCSLMEGTPDVMLFSRPASLSLLSKHLLKSFVCSTKNRRCKLLPLVMAAPLSMEHGTVTVVGIPPETDSSDRKNFFGRAFEKAAESTSSRMLHNHFDLSVIELKAEDRSKFLDALISLLS
notes: CDC45 (cell division cycle 45), endogenous in HeLa; also called cell division cycle 45; source: endogenous, HeLa (fixed cells for PLA; chromatin fraction)
B2: GST-MCM5 (natural protein, human, UniProt P33992 1-734, looked up)
chain: MSGFDDPGIFYSDSFGGDAQADEGQARKSQLQRRFKEFLRQYRVGTDRTGFTFKYRDELKRHYNLGEYWIEVEMEDLASFDEDLADYLYKQPAEHLQLLEEAAKEVADEVTRPRPSGEEVLQDIQVMLKSDASPSSIRSLKSDMMSHLVKIPGIIIAASAVRAKATRISIQCRSCRNTLTNIAMRPGLEGYALPRKCNTDQAGRPKCPLDPYFIMPDKCKCVDFQTLKLQELPDAVPHGEMPRHMQLYCDRYLCDKVVPGNRVTIMGIYSIKKFGLTTSRGRDRVGVGIRSSYIRVLGIQVDTDGSGRSFAGAVSPQEEEEFRRLAALPNVYEVISKSIAPSIFGGTDMKKAIACLLFGGSRKRLPDGLTRRGDINLLMLGDPGTAKSQLLKFVEKCSPIGVYTSGKGSSAAGLTASVMRDPSSRNFIMEGGAMVLADGGVVCIDEFDKMREDDRVAIHEAMEQQTISIAKAGITTTLNSRCSVLAAANSVFGRWDETKGEDNIDFMPTILSRFDMIFIVKDEHNEERDVMLAKHVITLHVSALTQTQAVEGEIDLAKLKKFIAYCRVKCGPRLSAEAAEKLKNRYIIMRSGARQHERDSDRRSSIPITVRQLEAIVRIAEALSKMKLQPFATEADVEEALRLFQVSTLDAALSGTLSGVEGFTSQEDQEMLSRIEKQLKRRFAIGSQVSEHSIIKDFTKQKYPEHAIHKVLQLMLRRGEIQHRMQRKVLYRLK
notes: human MCM5 in pGEX-4T-1; the GST construct is probably the same insert; also called pGEX-4T-1 MCM5; WT GST-MCM5; source: E. coli BL21, purified (Glutathione-Sepharose 4B)

Experiments:
[1] = molecular target: T1, FLAG-MCM5 (K583R), expressed in HeLa …; experiment: proximity ligation; HeLa cells transfected with FLAG-VEC, FLAG-MCM5 (WT) or FLAG-MCM5 (K583R), 1 h after release from double-thymidine block; PLA with CDC45; conditions: partners not purified
His-UFL1 = molecular target: T2, His-UFL1; experiment: pull-down; GST pull-down in vitro with purified GST-MCM5 and His-UFL1; bead-associated proteins analysed by western blot; conditions: both partners purified

fold decrease in PLA foci per cell against WT MCM5 [1] [fold] | binding result (His-UFL1) | Binder
4 | – | B1
– | binds | B2
